Laboratory results: paper PMC3484126
Like-named read-outs stand apart in the source and are kept apart here.

What was measured:
KLF4 full-length [1] = target: T1, KLF4 full-length (UniProt O43474-1 1-479); conditions: protein: recombinant; tags: N-terminal 6xHis-lipoyl-TEV tag, cleaved; label: 5' fluorescein
KLF4 full-length [2] = target: T1, KLF4 full-length; conditions: protein: recombinant; tags: N-terminal 6xHis-lipoyl-TEV tag, cleaved; label: 5' fluorescein; remark: listed apart in the source
KLF4 full-length [3] = target: T1, KLF4 full-length; conditions: protein: recombinant; tags: N-terminal 6xHis-lipoyl-TEV tag, cleaved; label: 5' Alexa488

T1 sequence (O43474 other isoform, or with tags, fused parts or gaps): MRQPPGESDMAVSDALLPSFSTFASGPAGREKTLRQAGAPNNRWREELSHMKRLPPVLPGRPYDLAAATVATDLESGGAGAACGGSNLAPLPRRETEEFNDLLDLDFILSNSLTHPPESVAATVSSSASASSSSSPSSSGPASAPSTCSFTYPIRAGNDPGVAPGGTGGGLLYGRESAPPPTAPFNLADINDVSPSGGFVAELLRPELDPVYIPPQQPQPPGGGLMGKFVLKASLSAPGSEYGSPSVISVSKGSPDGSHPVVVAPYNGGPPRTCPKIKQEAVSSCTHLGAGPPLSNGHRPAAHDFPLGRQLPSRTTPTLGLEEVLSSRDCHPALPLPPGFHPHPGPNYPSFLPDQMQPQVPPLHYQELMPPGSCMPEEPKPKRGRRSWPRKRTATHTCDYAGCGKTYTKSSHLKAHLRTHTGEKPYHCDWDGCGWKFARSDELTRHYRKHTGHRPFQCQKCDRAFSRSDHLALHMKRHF

B1: *K-1 (dsDNA)
DNA 1: AGGGTGTGGCCCGC
DNA 2: GCGGGCCACACCCT
**Q.** Does B1 bind (KLF4 full-length [1])?
**A.** binds

B2: *K-2 (dsDNA)
DNA 1: GGGCCACCCCGCC
DNA 2: GGCGGGGTGGCCC
**Q.** B2 was tested. Which binding signal (KLF4 full-length [2]) did it give?
**A.** 100 fold weaker than *K-1

B3: *P (dsDNA)
DNA 1: GGACATGTCCGGACATGTCC
DNA 2: GGACATGTCCGGACATGTCC
**Q.** Does B3 bind (KLF4 full-length [3])?
**A.** no binding
